Measurements published in PMC9398908, “GLP-1-mediated delivery of tesaglitazar improves obesity and glucose metabolism in male mice” (Nature Metabolism, 2022).

Columns and labels:
in vivo [1] = test: in vivo; parameters: species or system Sprague Dawley rats; conditions: Sprague Dawley, rat
Description: (§1) Plasma concentration-time profiles were analysed in C57BL6J mice and Sprague Dawley rats by a non-compartmental method using sparse sampling in Pharsight Phoenix WinNonLin v.6.4 software, and the resulting terminal half-life (T1/2), maximum plasma concentration (Cmax), time for maximum plasma concentration (Tmax), and AUC from zero to last valid measurable concentration-time point (AUC0-t) were determined.

in vivo [2] = test: in vivo; parameters: species or system C57BL6J mice; conditions: mouse
Description: as §1

C57BL/6J DIO mice = test: Urinary albumin:creatinine ratio in DIO mice (Extended Data Fig. 2g); type: in vivo, mouse; conditions: 14-day treatment, 50 nmol kg−1 per day, in words
Text: Frozen urine samples from heterozygous GIPR^dn mice in a CD1 background (n = 3) served as positive controls. […] For each treatment group, uACR was computed as a ratio of urinary albumin (mg ml^−1) to urinary creatinine (mg ml^−1).

[3] = 100 nmol/kg, concentration (PK, Extended Data Fig. 1c)
[4] = male, 100 nmol/kg, concentration (PK, Extended Data Fig. 1c)
[5] = C57BL6J, 100 nmol/kg, concentration (PK, Extended Data Fig. 1c)
[6] = male, C57BL6/J, 100 nmol/kg, concentration (PK, Extended Data Fig. 1c)

CC[C@H](C)[C@H](NC(=O)[C@H](Cc1ccccc1)NC(=O)[C@H](CCC(=O)O)NC(=O)[C@H](CCCCN)NC(=O)[C@H](C)NC(=O)[C@H](C)NC(=O)[C@H](CCC(N)=O)NC(=O)[C@H](CCC(=O)O)NC(=O)[C@H](CCC(=O)O)NC(=O)[C@H](CC(C)C)NC(=O)[C@H](Cc1ccc(O)cc1)NC(=O)[C@H](CO)NC(=O)[C@H](CO)NC(=O)[C@@H](NC(=O)[C@H](CC(=O)O)NC(=O)[C@H](CO)NC(=O)[C@@H](NC(=O)[C@H](Cc1ccccc1)NC(=O)[C@@H](NC(=O)CNC(=O)[C@H](CCC(=O)O)NC(=O)C(C)(C)NC(=O)[C@@H](N)Cc1c[nH]cn1)[C@@H](C)O)[C@@H](C)O)C(C)C)C(=O)N[C@@H](C)C(=O)N[C@@H](Cc1c[nH]c2ccccc12)C(=O)N[C@@H](CC(C)C)C(=O)N[C@H](C(=O)N[C@@H](CCCCN)C(=O)NCC(=O)NCC(=O)N1CCC[C@H]1C(=O)N[C@@H](CO)C(=O)N[C@@H](CO)C(=O)NCC(=O)N[C@@H](C)C(=O)N1CCC[C@H]1C(=O)N1CCC[C@H]1C(=O)N1CCC[C@H]1C(=O)N[C@@H](CO)C(=O)N[C@@H](CCCCN)C(N)=O)C(C)C [GLP-1RA, GLP-1 Aib2 Glu16 CEX Lys40]
level at time molar at 4 h (in vivo [1]; [3]): 10.7 nM
AUC(0-t) (in vivo [1]; male): 0.131 µM·h
Cmax (in vivo [1]; male): 41.3 nM
half-life (in vivo [1]; male): 2.13 h
level at time molar at 0.5 h (in vivo [1]; [4]): 30.7 nM
level at time molar at 2 h (in vivo [1]; [4]): 26.1 nM
level at time molar at 4 h (in vivo [1]; [4]): 15.8 nM
level at time molar at 0.5 h (in vivo [2]; [5]): 435 nM
level at time molar at 1 h (in vivo [2]; [5]): 219 nM
AUC(0-t) (in vivo [2]; male, C57BL6/J): 0.399 µM·h
Cmax (in vivo [2]; male, C57BL6/J): 361 nM

CCO[C@@H](Cc1ccc(OCCc2ccc(OS(C)(=O)=O)cc2)cc1)C(=O)N[C@@H](CCC(=O)NCCCC[C@H](NC(=O)[C@H](CO)NC(=O)[C@@H]1CCCN1C(=O)[C@@H]1CCCN1C(=O)[C@@H]1CCCN1C(=O)[C@H](C)NC(=O)CNC(=O)[C@H](CO)NC(=O)[C@H](CO)NC(=O)[C@@H]1CCCN1C(=O)CNC(=O)CNC(=O)[C@H](CCCCN)NC(=O)[C@@H](NC(=O)[C@H](CC(C)C)NC(=O)[C@H](Cc1c[nH]c2ccccc12)NC(=O)[C@H](C)NC(=O)[C@@H](NC(=O)[C@H](Cc1ccccc1)NC(=O)[C@H](CCC(=O)O)NC(=O)[C@H](CCCCN)NC(=O)[C@H](C)NC(=O)[C@H](C)NC(=O)[C@H](CCC(N)=O)NC(=O)[C@H](CCC(=O)O)NC(=O)[C@H](CCC(=O)O)NC(=O)[C@H](CC(C)C)NC(=O)[C@H](Cc1ccc(O)cc1)NC(=O)[C@H](CO)NC(=O)[C@H](CO)NC(=O)[C@@H](NC(=O)[C@H](CC(=O)O)NC(=O)[C@H](CO)NC(=O)[C@@H](NC(=O)[C@H](Cc1ccccc1)NC(=O)[C@@H](NC(=O)CNC(=O)[C@H](CCC(=O)O)NC(=O)C(C)(C)NC(=O)[C@@H](N)Cc1c[nH]cn1)[C@@H](C)O)[C@@H](C)O)C(C)C)[C@@H](C)CC)C(C)C)C(N)=O)C(=O)O [GLP-1RA/tesaglitazar, GLP-1 Aib2 Glu16 CEX Lys40/tesaglitazar conjugate]
level at time molar at 4 h (in vivo [1]; [3]): 20.5 nM
AUC(0-t) (in vivo [1]; male): 0.174 µM·h
Cmax (in vivo [1]; male): 37.5 nM
half-life (in vivo [1]; male): 2.54 h
level at time molar at 10 min (in vivo [1]; [4]): 41.7 nM
level at time molar at 1 h (in vivo [1]; [4]): 40.3 nM
level at time molar at 2 h (in vivo [1]; [4]): 26.8 nM
level at time molar at 4 h (in vivo [1]; [4]): 21.2 nM
level at time molar at 10 min (in vivo [2]; [5]): 246 nM
level at time molar at 0.5 h (in vivo [2]; [5]): 314 nM
level at time molar at 1 h (in vivo [2]; [5]): 131 nM
AUC(0-t) (in vivo [2]; male, C57BL6/J): 0.505 µM·h
Cmax (in vivo [2]; male, C57BL6/J): 278 nM
half-life (in vivo [2]; male, C57BL6/J): 1.1 h
level at time molar at 2 h (in vivo [2]; [6]): 87.6 nM
level at time molar at 4 h (in vivo [2]; [6]): 21.6 nM
urinary albumin:creatinine ratio (C57BL/6J DIO mice): likewise not changed
